Measurements as given in patent US20210395354A1 (AMPSOURCE BIOPHARMA SHANGHAI, published 2021).

Tests used:
human NGF (his tag) [1] = target: T1, human NGF (his tag) (human, UniProt P01138 122-241, limits assumed); test: BLI (ForteBio Octet), method of example 4
T1 construct: Captured on Ni-NTA sensors in the ForteBio Octet assay; also called hNGF; antigen; not shown: his tag
Procedure: (§1) The binding affinity constants of purified mouse monoclonal antibody #56 and #2 with antigens were determined by the bio film interference technique (fortebio octet Red & QK system, Pall company). […] After the kinetic fitting curve of affinity analysis, the affinity constant was calculated by analyzing the above data.

[2] = target: T2, human nerve growth factor (hNGF) (human, UniProt P01138 122-241); test: cell-based or functional assay
T2 sequence (P01138 122-241 limits assumed): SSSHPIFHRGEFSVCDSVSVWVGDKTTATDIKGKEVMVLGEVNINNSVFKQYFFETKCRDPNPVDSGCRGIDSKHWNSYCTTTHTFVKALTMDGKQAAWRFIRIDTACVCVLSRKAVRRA

human NGF (his tag) [3] = target: T1, human NGF (his tag); test: BLI (ForteBio Octet), human NGF (his tag) on Ni-NTA sensor
Procedure: as §1

[4] = target: T2, human nerve growth factor (hNGF); test: indirect ELISA on coated hNGF (0.2 µg/ml), detection with HRP anti-mouse IgG, OD 450 nm
Procedure: Indirect ELISA was used to determine the binding titers of purified mouse antibody #2, #56 and #98 to hNGF. Among them, each pore was coated with 100 μl 0.2 μg/ml hNGF (Corning company) and placed at 4° C. for 16-20 h. The PBS buffer in 96 well plate was sucked off, washed with PBST (pH 7.4, PBS containing 0.05% Tween 20) buffer once, then 200 μL/well PBST/1% skimmed milk powder was added, incubated at room temperature for 1 h and sealed. Remove the blocking solution, wash the plate with PBST buffer for 3 times, add PBST/1% skimmed milk powder to dilute to the appropriate concentration of anti-hngf mouse antibody to be tested, 100 μL/well, incubate at room temperature for 1.5 h. Remove the reaction system, wash the plate with PBST three times, and then use the HRP labeled Sheep anti mouse IgG polyclonal antibody (Jackson Laboratory) diluted with PBST/1% skimmed milk powder (dilution ratio 1:5000) at 50 μL/well as the detection antibody, and incubate at room temperature for 1 h. After 3 times of PBST washing, add 100 μL/well TMB and incubate at room temperature for 10-30 min. Add 50 μL/pore 0.2 M sulfuric acid to stop the reaction.

T1 sequence (P01138 122-241 limits assumed): as above

B1: humanized antibody AB5D2 (antibody, V domains shown)
VH: QVQLVQSGAEVKKPGASVKVSCKASGYTFTDYWMQWVKQRPGQGLEWIGTIYPGDGYTRYIQKFKGRVTMTRDTSTSTVYMELSSLRSEDSAVYYCARRAAYYTMDYWGQGTLVTVSS
VL: DIQMTQSPSSLSASVGDRVTITCKASQDVNTAVAWYQQKPGKAPKLLIYWASTRHTGVPDRFTGSGSGTDYTLTISSLQPEDLALYYCQQHYSSPWTFGGGTKVEIT
notes: Humanized from #2 by CDR transplantation
Question: For B1, which Kd (human NGF (his tag) [1]) is on record?
Answer: 0.00633 nM

Question: What about the koff (human NGF (his tag) [1]) of the same binder?
Answer: 7.94e-06 s⁻¹

Question: And the kon (human NGF (his tag) [1])?
Answer: 1.25e+06 M⁻¹ s⁻¹

B2: humanized antibody AB5D4 (antibody, V domains shown)
VH: QVQLVQSGAEVKKPGASVKVSCKASGYTFTDYWMHWVKQAPGQGLEWMGIIYPGDGYTSYAQKFQGRVTMTRDTSTSTVYMELSSLRSEDTAVYYCARRAAYYTMDYWGQGTLVTVSS
VL: DIQMTQSPSSLSASVGDRVTITCRASQDVNTALAWYQQKPGKAPKLLLYWASRLETGVPSRFSGSGSGTDYTLTISSLQPEDFATYYCQQHYSSPWTFGGGTKVEIT
notes: as for B1
Question: With B2 as the binder, how does the Kd (human NGF (his tag) [1]) read?
Answer: 0.0182 nM

Question: And the koff (human NGF (his tag) [1])?
Answer: 3.25e-05 s⁻¹

Question: What about the kon (human NGF (his tag) [1]) of the same binder?
Answer: 1.78e+06 M⁻¹ s⁻¹

B3: humanized antibody AB5D5 (antibody, V domains shown)
VH: QVQLVQSGAEVKKPGASVKVSCKASGYTFTDYWMHWVKQAPGQGLEWMGIIYPGDGYTSYIQKFQGRVTMTRDTSTSTVYMELSSLRSEDTAVYYCARRAAYYTMDYWGQGTLVTVSS
VL: DIQMTQSPSSLSASVGDRVTITCRASQDVNTALAWYQQKPGKAPKLLLYWASRLETGVPSRFSGSGSGTDYTLTISSLQPEDLATYYCQQHYSSPWTFGGGTKVEIT
notes: as for B1
Question: Which results are given for B3?
Answer: Kd (human NGF (his tag) [1]): 0.0154 nM; koff (human NGF (his tag) [1]): 1.89e-05 s⁻¹; kon (human NGF (his tag) [1]): 1.23e+06 M⁻¹ s⁻¹

B4: humanized antibody AB5D3 (antibody, V domains shown)
VH: QVQLVQSGAEVKKPGASVKVSCKASGYTFTDYWMHWVRQAPGQGLEWMGIIYPGDGYTSYAQKFQGRVTMTRDTSTSTVYMELSSLRSEDTAVYYCARRAAYYTMDYWGQGTLVTVSS
VL: DIQMTQSPSSLSASVGDRVTITCRASQDVNTALAWYQQKPGKAPKLLLYWASRLESGVPSRFSGSGSGTDYTLTISSLQPEDFATYYCQQHYSSPWTFGGGTKVEIT
notes: as for B1
Question: With B4 as the binder, how does the Kd (human NGF (his tag) [1]) read?
Answer: 0.0129 nM

Question: And the koff (human NGF (his tag) [1])?
Answer: 1.92e-05 s⁻¹

Question: What about the kon (human NGF (his tag) [1]) of the same binder?
Answer: 1.49e+06 M⁻¹ s⁻¹

B5: mouse monoclonal antibody #56 (antibody, mouse IgG1, V domains shown)
VH: QVQLKESGPGLVAPSQSLSITCTVSGFSLTGYGVNWVRQPPGKGLEWLGMIWADGDTDYNSALKSRLSISKDNSKSQVFLKVNNLQTDDTARYYCARDSYYYGYNFFDVWGAGTTVTVSS
VL: DIQMTQTTSSLSASLGDRVTISCRASQDISNYLNWYQQKPEGTLKLLIYYTSRLHSGVPSRFSGSGSGTDYSLTISSLEQEDIATYFCQQGNTLPRTFGGGTKLEIK
notes: also called Chen 56; antibody secreted by hybridoma A56
Question: What does the source list for B5?
Answer: IC50 (read off the curve), NGF-dependent TF-1 cell proliferation [2]: ~0.4 µg/mL; Kd (human NGF (his tag) [3]): 0.0123 nM; koff (human NGF (his tag) [3]): 8.89e-06 s⁻¹; kon (human NGF (his tag) [3]): 723000 M⁻¹ s⁻¹

B6: human mouse chimeric antibody AB5C1 (antibody, V domains shown)
VH: QVQLKESGPGLVAPSQSLSITCTVSGFSLTGYGVNWVRQPPGKGLEWLGMIWADGDTDYNSALKSRLSISKDNSKSQVFLKVNNLQTDDTARYYCARDSYYYGYNFFDVWGAGTTVTVSS
VL: DIQMTQTTSSLSASLGDRVTISCRASQDISNYLNWYQQKPEGTLKLLIYYTSRLHSGVPSRFSGSGSGTDYSLTISSLEQEDIATYFCQQGNTLPRTFGGGTKLEIK
Question: Which “IC50 (read off the curve), NGF-dependent TF-1 cell proliferation” value (“IC50 (read off the curve)” for short) [2] does the source give for B6 here?
Answer: ~0.9 µg/mL

Question: What about the Kd (human NGF (his tag) [1]) of the same binder?
Answer: 0.0299 nM

Question: What about the koff (human NGF (his tag) [1]) of the same binder?
Answer: 5.4e-05 s⁻¹

Question: And the kon (human NGF (his tag) [1])?
Answer: 1.81e+06 M⁻¹ s⁻¹

B7: humanized antibody AB5C6 (antibody, V domains shown)
VH: QVQLKESGPGLVAPSETLSITCTVSGFSLTGYGVNWVRQPPGKGLEWLGMIWADGDTDYNSALKSRLTISKDNSKSQVFLKVNNLQTDDTARYYCARDSYYYGYNFFDVWGAGTTVTVSS
VL: DIQMTQSPSSLSASVGDRVTISCRASQDISNYLNWYQQKPEGTLKLLIYYTSRLHSGVPSRFSGSGSGTDYSLTISSLQQEDIATYFCQQGNTLPRTFGGGTKLEIK
notes: Humanized from #56 by surface remodeling
Question: Which “IC50 (read off the curve)” value [2] does the source give for B7 here?
Answer: ~0.4 µg/mL

Question: What about the Kd (human NGF (his tag) [1]) of the same binder?
Answer: 0.0102 nM

Question: What about the koff (human NGF (his tag) [1]) of the same binder?
Answer: 1.61e-05 s⁻¹

Question: What about the kon (human NGF (his tag) [1]) of the same binder?
Answer: 1.59e+06 M⁻¹ s⁻¹

B8: humanized antibody AB5C2 (antibody, V domains shown)
VH: QVQLQESGPGLVKPSETLSLTCTVSGFSLTGYGVNWVRQPPGKGLEWLGMIWADGDTDYNSALKSRVTISKDTSKNQFSLKLSSVTAADTARYYCARDSYYYGYNFFDVWGAGTTVTVSS
VL: DIQMTQSPSSLSASVGDRVTITCRASQDISNYLNWYQQKPGKAPKLLIYYTSRLHSGVPSRFSGSGSGTDFTFTISSLQPEDIATYFCQQGNTLPRTFGGGTKVEIK
notes: Humanized from #56 by CDR transplantation
Question: With B8 as the binder, how does the “IC50 (read off the curve)” value [2] read?
Answer: ~0.4 µg/mL

Question: What about the Kd (human NGF (his tag) [1]) of the same binder?
Answer: 0.0013 nM

Question: And the koff (human NGF (his tag) [1])?
Answer: 2.16e-06 s⁻¹

Question: And the kon (human NGF (his tag) [1])?
Answer: 1.66e+06 M⁻¹ s⁻¹

B9: humanized antibody AB5C4 (antibody, V domains shown)
VH: QVQLQESGPGLVKPSETLSLTCTVSGFSLTGYGWGWVRQPPGKGLEWIGSIWADGDTYYNPSLKSRVTISVDTSKNQFSLKLSSVTAADTAVYYCARDSYYYGYNFFDVWGQGTMVTVSS
VL: DIQMTQSPSSLSASVGDRVTITCQASQDISNYLNWYQQKPGKAPKLLIYYTSNLESGVPSRFSGSGSGTDFTFTISSLQPEDIATYYCQQGNTLPRTFGGGTKVEIK
notes: as for B8
Question: B9 was tested. Which Kd (human NGF (his tag) [1]) did it give?
Answer: 0.0153 nM

Question: And the koff (human NGF (his tag) [1])?
Answer: 2.23e-05 s⁻¹

Question: What about the kon (human NGF (his tag) [1]) of the same binder?
Answer: 1.46e+06 M⁻¹ s⁻¹

B10: humanized antibody AB5C3 (antibody, V domains shown)
VH: QVQLQESGPGLVKPSETLSLTCTVSGFSLTGYGWGWIRQPPGKGLEWIGSIWADGDTYYNPSLKSRVTISVDTSKNQFSLKLSSVTAADTAVYYCARDSYYYGYNFFDVWGQGTMVTVSS
VL: DIQMTQSPSSLSASVGDRVTITCQASQDISNYLNWYQQKPGKAPKLLIYYTSNLETGVPSRFSGSGSGTDFTFTISSLQPEDIATYYCQQGNTLPRTFGGGTKVEIK
notes: as for B8
Question: With B10 as the binder, how does the Kd (human NGF (his tag) [1]) read?
Answer: 0.00755 nM

Question: What about the koff (human NGF (his tag) [1]) of the same binder?
Answer: 9.87e-06 s⁻¹

Question: And the kon (human NGF (his tag) [1])?
Answer: 1.31e+06 M⁻¹ s⁻¹

B11: humanized antibody AB5C5 (antibody, V domains shown)
VH: QVQLQESGPGLVKPSETLSLTCTVSGFSLTGYGWGWVRQPPGKGLEWLGSIWADGDTYYNPSLKSRVTISVDTSKNQFSLKLSSVTAADTAVYYCARDSYYYGYNFFDVWGQGTMVTVSS
VL: DIQMTQSPSSLSASVGDRVTITCQASQDISNYLNWYQQKPGKAPKLLIYYTSNLESGVPSRFSGSGSGTDFTFTISSLQPEDIATYFCQQGNTLPRTFGGGTKVEIK
notes: as for B8
Question: Which results are given for B11?
Answer: Kd (human NGF (his tag) [1]): 0.0089 nM; koff (human NGF (his tag) [1]): 1.59e-05 s⁻¹; kon (human NGF (his tag) [1]): 1.78e+06 M⁻¹ s⁻¹

B12: mouse monoclonal antibody #2 (antibody, mouse IgG1, V domains shown)
VH: QVQLQQSGPELARPGASVKLSCKASGYTFTDYWMQWVKQRPGQGLEWIGTIYPGDGYTRYIQKFKGRATLTADKSSSTAYMQLNSLASEDSAVYYCARRAAYYTMDYWGQGTSVTVSS
VL: DIVMTQSHKFMSTSVGDRVSITCKASQDVNTAVAWYQQKPGQSPKLLIYWASTRHTGVPDRFTGSGSGTDYILTISSVQAEDLALYYCQQHYSSPWTFGGGTKLEIT
notes: also called Chen 2; antibody secreted by hybridoma A2
Question: With B12 as the binder, how does the “EC50 (read off the curve)” value [4] read?
Answer: ~0.007 µg/mL

Question: What about the Kd (human NGF (his tag) [3]) of the same binder?
Answer: 0.0159 nM

Question: What about the koff (human NGF (his tag) [3]) of the same binder?
Answer: 2.92e-05 s⁻¹

Question: And the kon (human NGF (his tag) [3])?
Answer: 1.83e+06 M⁻¹ s⁻¹

B13: human mouse chimeric antibody AB5D1 (antibody, V domains shown)
VH: QVQLQQSGPELARPGASVKLSCKASGYTFTDYWMQWVKQRPGQGLEWIGTIYPGDGYTRYIQKFKGRATLTADKSSSTAYMQLNSLASEDSAVYYCARRAAYYTMDYWGQGTSVTVSS
VL: DIVMTQSHKFMSTSVGDRVSITCKASQDVNTAVAWYQQKPGQSPKLLIYWASTRHTGVPDRFTGSGSGTDYILTISSVQAEDLALYYCQQHYSSPWTFGGGTKLEIT
Question: B13 was tested. Which Kd (human NGF (his tag) [1]) did it give?
Answer: 0.0106 nM

Question: What about the koff (human NGF (his tag) [1]) of the same binder?
Answer: 1.55e-05 s⁻¹

Question: What about the kon (human NGF (his tag) [1]) of the same binder?
Answer: 1.46e+06 M⁻¹ s⁻¹

B14: humanized antibody AB5D6 (antibody, V domains shown)
VH: QVQLQQSGPEVAKPGASVKLSCKASGYTFTDYWMQWVKQRPGQGLEWIGTIYPGDGYTRYIQKFKGRATLTADKSTSTAYMELNSLASEDSAVYYCARRAAYYTMDYWGQGTSVTVSS
VL: DIVMTQSHKFMSTSVGDRVTITCKASQDVNTAVAWYQQKPGQSPKLLIYWASTRHTGVPDRFSGSGSGTDYILTISSVQAEDLALYYCQQHYSSPWTFGGGTKLEIT
notes: Humanized from #2 by surface remodeling
Question: What does the source list for B14?
Answer: Kd (human NGF (his tag) [1]): 0.0157 nM; koff (human NGF (his tag) [1]): 2.22e-05 s⁻¹; kon (human NGF (his tag) [1]): 1.41e+06 M⁻¹ s⁻¹
